Assay results reported in IntAct's records for PubMed 23202584.

B1: Ubiquitin-like protein ATG12 (Homo sapiens), O94817 (parent)
chain: MAEEPQSVLQLPTSIAAGGEGLTDVSPETTTPEPPSSAAVSPGTEEPAGDTKKKIDILLKAVGDTPIMKTKKWAVERTRTIQGLIDFIKKFLKLVASEQLFIYVNQSFAPSPDQEVGTLYECFGSDGKLVLHYCKSQAWG

Variants of: B1
Details: with atg3_mouse Atg3, Q9CPX6
Sequence of atg3_mouse Atg3, Q9CPX6 (Q9CPX6 whole entry): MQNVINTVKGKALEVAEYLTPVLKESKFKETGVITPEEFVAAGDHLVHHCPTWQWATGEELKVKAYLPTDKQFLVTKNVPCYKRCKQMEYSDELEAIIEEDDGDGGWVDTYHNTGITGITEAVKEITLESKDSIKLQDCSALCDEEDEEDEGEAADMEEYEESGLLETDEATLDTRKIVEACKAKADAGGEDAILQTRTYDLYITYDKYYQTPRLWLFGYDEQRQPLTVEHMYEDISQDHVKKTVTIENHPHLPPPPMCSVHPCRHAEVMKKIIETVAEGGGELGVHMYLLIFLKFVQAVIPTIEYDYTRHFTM

effect of a mutation on the interaction | Variant
disrupting interaction strength | W73A
disrupting interaction strength | K54D
disrupting interaction strength | K72D
